Experimental data from US20230340027A1 (TECHNION RESEARCH AND DEVELOPMENT FOUNDATION, published 2023).
Positions of bridges follow the written chain, without caps; N, C: chain ends. code X = not defined here

Tests used:
biotin-tetra-UbK48 [1] = biological target: T1, biotin-tetra-UbK48 (UniProt P0CG48 1-76, Ub monomers linked to one another via Lys48 (K48); biotin tag (site not stated)); assay: the filing's modified fluorescence assay, FITC-labelled peptide on tetra-UbK48 (FIGS. 1G and 26)
T1 construct: Immobilised on streptavidin-coated 96-well plates (1 ug per well); one ubiquitin repeat is meant; also called biotin tagged tetra-UbK48

biotin-tetra-UbK48 [2] = biological target: T1, biotin-tetra-UbK48; assay: direct fluorescence plate binding: biotin-tetra-UbK48 on a streptavidin plate, labeled peptide titrated, bound peptide released with 6 M Gn.HCl and read (ex 480 nm, em 525 nm); one-site fit

Kd (biotin-tetra-UbK48 [1]): 12.3 nM | EC50 (read off the curve) (biotin-tetra-UbK48 [2]): ~10 nM
B1: (Ub4_ix_S7C)2CH2-FITC (peptide)
peptide: {CH2CO}-WLYLDDCGDWWICG-{code X-C(fluorescein-5-maleimide)-NH2}
modifications: thioether N-13 (inferred); reading uncertain; also: dimer: Cys7 joined to Cys7 of second copy by -S-CH2-S-, residue 15 not given here
notes: Dimer of peptide 29, so each chain carries the label; also called FITC labeled stapled dimer 30; 30
